Source: article PMC5928183, “A Role for the Non-Receptor Tyrosine Kinase Abl2/Arg in Experimental Neuroinflammation” (Journal of Neuroimmune Pharmacology, 2018)

Molecular target: actin filaments (F-actin) from chicken skeletal muscle (chicken, UniProt P68139 1-377)
Test: co-sedimentation; increasing amounts of Arg/Arg V1030M incubated with 1 μM actin filaments; 40 mM Hepes pH 7.25, 150 mM KCl, 2 mM MgCl2, 0.01% NP40, 4.5% glycerol; supernatant and pellet on SDS-PAGE, Coomassie R250 and densitometry; three trials
Conditions: both partners purified

| Binder | Kd |
| --- | --- |
| Arg (Abl2/Arg non-receptor tyrosine kinase), valine at position 1030 (enzyme, SNP rs30466582); neither tags nor construct limits are stated here; also called Arg_1030V; Abelson related gene; source: Hi5 cells via baculoviral vectors, purified as previously described (Wang et al., 2001)) MGQQVGRVGEAPGLQQPQPRGIRGSSAARPSGRRRDPAGRTADAGFNVFTQHDHFASCVEDGFEGDKTGGSSPEVLHRPFGCDAESQALNEAIRWSSKENLLGATESDPNLFVALYDFVASGDNTLSITKGEKLRVLGYNQNGEWSEVRSKNGQGWVPSNYITPVNSLEKHSWYHGPVSRSAAEYLLSSLINGSFLVRESESSPGQLSISLRYEGRVYHYRINTTTDSKVYVTAESRFSTLAELVHHHSTVADGLVTTLHYPAPKCNKPTVYGVSPIHDKWEMERTDITMKHKLGGGQYGEVYVGVWKKYSLTVAVKTFKEDTMEVEEFLKEAAVMKEIKHPNLVQLLGVCTLEPPFYIVTEYMPYGNLLDYLRECSREEVTAVVLLYMATQISSAMEYLEKKNFIHRDLAARNCLVGENHVVKVADFGLSRLMTGDTYTAHAGAKFPIKWTAPESLAYNTFSIKSDVWAFGVLLWEIATYGMSPYPGIDLSQVYDLLEKGYRMEQPEGCPPKVYELMRACWKWSPADRPSFAETHQAFETMFHDSSISEEVAEELGRTASSSSVVPYLPRLPLLPSKTRTLRKQGENKENLDGGLDAAESLASSSAPAGFIRSTQASSGSPALPRKQRDKSPSSLLEDAKETCFTRDRKGGFFSSFMKKRNAPTPPKRSSSFREMENQPHKKYELTGNFSPVASLQNADGFSVAPSQQEPNLVPAKCYGGSFAQRNLCADDDSGGGGGSGTAGGGWSGITGFFTPRLIKKTLGLRAGKPTASDDTSKPFPRSNSTSSMSSGLPEQDRMAMTLPRNCQRSKLQLERTVSTSSQPEENVDRANDMLPKKSEEGAAPARERPKAKLLPRGATALPLRAPDPAITESDSPGVGVAGVAAAPKGKERNGGTRLGVAGVPEDGEQLGWSSPAKAVAVLPTTHNHKVPVLISPTLKHTPADVQLIGTDSQGNKFKLLSEHQVTSSGDKDRPRRVKPKCAPPPPPVMRLLQHPSTCSDPEEEPTAPPAGQHTPETQEGGKKAAPGPVPSSGKPGRPVMPPPQVPLPTSSISPAKMANGTAGTKVALRKTKQAAEKISADKISKEALLECADLLSSAITEPVPNSQLVDTGHQLLDYCSGYVDSIPQTRNKFAFREAVSKLELSLQELQVSSTAAGVPGTNPVLNNLLSCVQEISDVVQR | 710 ± 500 nM |
| Arg V1030M (enzyme, SNP rs30466582); neither tags nor construct limits are stated here; also called Arg_1030M; source: Hi5 cells via baculoviral vectors, purified as previously described (Wang et al., 2001)) MGQQVGRVGEAPGLQQPQPRGIRGSSAARPSGRRRDPAGRTADAGFNVFTQHDHFASCVEDGFEGDKTGGSSPEVLHRPFGCDAESQALNEAIRWSSKENLLGATESDPNLFVALYDFVASGDNTLSITKGEKLRVLGYNQNGEWSEVRSKNGQGWVPSNYITPVNSLEKHSWYHGPVSRSAAEYLLSSLINGSFLVRESESSPGQLSISLRYEGRVYHYRINTTTDSKVYVTAESRFSTLAELVHHHSTVADGLVTTLHYPAPKCNKPTVYGVSPIHDKWEMERTDITMKHKLGGGQYGEVYVGVWKKYSLTVAVKTFKEDTMEVEEFLKEAAVMKEIKHPNLVQLLGVCTLEPPFYIVTEYMPYGNLLDYLRECSREEVTAVVLLYMATQISSAMEYLEKKNFIHRDLAARNCLVGENHVVKVADFGLSRLMTGDTYTAHAGAKFPIKWTAPESLAYNTFSIKSDVWAFGVLLWEIATYGMSPYPGIDLSQVYDLLEKGYRMEQPEGCPPKVYELMRACWKWSPADRPSFAETHQAFETMFHDSSISEEVAEELGRTASSSSVVPYLPRLPLLPSKTRTLRKQGENKENLDGGLDAAESLASSSAPAGFIRSTQASSGSPALPRKQRDKSPSSLLEDAKETCFTRDRKGGFFSSFMKKRNAPTPPKRSSSFREMENQPHKKYELTGNFSPVASLQNADGFSVAPSQQEPNLVPAKCYGGSFAQRNLCADDDSGGGGGSGTAGGGWSGITGFFTPRLIKKTLGLRAGKPTASDDTSKPFPRSNSTSSMSSGLPEQDRMAMTLPRNCQRSKLQLERTVSTSSQPEENVDRANDMLPKKSEEGAAPARERPKAKLLPRGATALPLRAPDPAITESDSPGVGVAGVAAAPKGKERNGGTRLGVAGVPEDGEQLGWSSPAKAVAVLPTTHNHKVPVLISPTLKHTPADVQLIGTDSQGNKFKLLSEHQVTSSGDKDRPRRVKPKCAPPPPPVMRLLQHPSTCSDPEEEPTAPPAGQHTPETQEGGKKAAPGPMPSSGKPGRPVMPPPQVPLPTSSISPAKMANGTAGTKVALRKTKQAAEKISADKISKEALLECADLLSSAITEPVPNSQLVDTGHQLLDYCSGYVDSIPQTRNKFAFREAVSKLELSLQELQVSSTAAGVPGTNPVLNNLLSCVQEISDVVQR | 860 ± 640 nM |
